Data as given in publication PMC9482650, “Quantitative fragmentomics allow affinity mapping of interactomes” (Nature Communications, 2022).

Experiments:
Assay in all cases: holdup assay
Parameters in all cases: key: below the threshold = too weak to quantify, mostly under pKd 3.1 to 4
APBA1_2, Q02410 = biological target: T1, APBA1_2, Q02410
T1 sequence (Q02410 742-832, limits assumed, looked up): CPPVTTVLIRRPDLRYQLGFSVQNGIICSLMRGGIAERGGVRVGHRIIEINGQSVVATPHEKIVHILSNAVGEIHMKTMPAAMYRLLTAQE

APBA3_1, O96018 = biological target: T2, APBA3_1, O96018
T2 sequence (O96018 389-490, limits assumed, looked up): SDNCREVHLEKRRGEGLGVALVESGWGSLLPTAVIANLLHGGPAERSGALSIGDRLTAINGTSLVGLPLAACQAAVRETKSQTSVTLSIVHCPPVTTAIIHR

CASK, O14936 = biological target: CASK, O14936
CASK, O14936, sequence (O14936 487-570): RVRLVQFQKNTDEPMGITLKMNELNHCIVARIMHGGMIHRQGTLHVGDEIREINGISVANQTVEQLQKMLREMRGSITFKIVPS

DLG1_3, Q12959 = biological target: DLG1_3, Q12959
DLG1_3, Q12959, sequence (Q12959 457-571): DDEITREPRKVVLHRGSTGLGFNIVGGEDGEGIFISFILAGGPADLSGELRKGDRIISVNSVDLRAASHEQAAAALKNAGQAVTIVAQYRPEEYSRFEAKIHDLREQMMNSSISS

DLG3_3, Q92796 = biological target: T3, DLG3_3, Q92796
T3 sequence (Q92796 374-475, limits assumed, looked up): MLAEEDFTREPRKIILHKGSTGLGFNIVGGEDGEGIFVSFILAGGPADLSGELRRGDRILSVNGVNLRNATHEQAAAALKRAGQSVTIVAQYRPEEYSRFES

DLG4_1, P78352 = biological target: DLG4_1, P78352
DLG4_1, P78352, sequence (P78352 62-152): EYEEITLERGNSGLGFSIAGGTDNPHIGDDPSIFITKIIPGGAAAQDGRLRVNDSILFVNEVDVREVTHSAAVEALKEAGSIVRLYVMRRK

FRMPD2_3, Q68DX3 = biological target: FRMPD2_3, Q68DX3
FRMPD2_3, Q68DX3, sequence (Q68DX3 1073-1166): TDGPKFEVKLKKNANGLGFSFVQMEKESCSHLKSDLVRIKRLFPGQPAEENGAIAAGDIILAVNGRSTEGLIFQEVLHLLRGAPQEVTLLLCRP

FRMPD3, Q5JV73 = biological target: FRMPD3, Q5JV73
FRMPD3, Q5JV73, sequence (Q5JV73 12-100): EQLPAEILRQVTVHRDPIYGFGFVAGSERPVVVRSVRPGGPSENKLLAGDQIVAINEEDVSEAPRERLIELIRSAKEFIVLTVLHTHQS

GOPC, Q9HD26 = biological target: GOPC, Q9HD26
GRIP2_3, Q9C0E4 = biological target: GRIP2_3, Q9C0E4
GRIP2_3, Q9C0E4, sequence (Q9C0E4 238-339): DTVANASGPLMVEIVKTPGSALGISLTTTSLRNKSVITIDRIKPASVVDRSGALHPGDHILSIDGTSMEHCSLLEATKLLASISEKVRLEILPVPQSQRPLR

GRIP2_6, Q9C0E4 = biological target: GRIP2_6, Q9C0E4
GRIP2_6, Q9C0E4, sequence (Q9C0E4 648-740): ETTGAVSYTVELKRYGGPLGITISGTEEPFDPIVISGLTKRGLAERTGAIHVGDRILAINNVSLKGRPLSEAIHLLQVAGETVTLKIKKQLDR

Inadl_4, Q8NI35 = biological target: Inadl_4, Q8NI35
Inadl_4, Q8NI35, sequence (Q8NI35 547-651): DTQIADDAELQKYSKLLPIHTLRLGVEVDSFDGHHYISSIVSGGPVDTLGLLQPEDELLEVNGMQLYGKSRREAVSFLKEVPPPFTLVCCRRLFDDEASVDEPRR

Inadl_8, Q8NI35 = biological target: Inadl_8, Q8NI35
Inadl_8, Q8NI35, sequence (Q8NI35 1425-1530): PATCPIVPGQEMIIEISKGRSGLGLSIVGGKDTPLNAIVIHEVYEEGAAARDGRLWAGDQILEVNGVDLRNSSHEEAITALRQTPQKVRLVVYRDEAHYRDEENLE

LAP2, Q96RT1 = biological target: LAP2, Q96RT1
LAP2, Q96RT1, sequence (Q96RT1 other isoform, or with tags, fused parts or gaps): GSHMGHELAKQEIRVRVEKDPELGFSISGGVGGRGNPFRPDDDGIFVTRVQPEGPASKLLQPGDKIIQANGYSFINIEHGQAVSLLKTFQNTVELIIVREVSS

LIMK2, P53671 = biological target: LIMK2, P53671
LIMK2, P53671, sequence (P53671 143-248): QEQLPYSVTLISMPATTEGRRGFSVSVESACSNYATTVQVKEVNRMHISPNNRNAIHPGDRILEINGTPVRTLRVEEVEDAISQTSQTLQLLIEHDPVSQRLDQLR

LNX1_1, Q8TBB1 = biological target: LNX1_1, Q8TBB1
LNX1_1, Q8TBB1, sequence (Q8TBB1 261-371): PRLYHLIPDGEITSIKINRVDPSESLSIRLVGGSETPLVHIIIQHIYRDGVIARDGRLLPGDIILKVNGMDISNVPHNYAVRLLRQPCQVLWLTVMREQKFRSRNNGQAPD

LNX2_3, Q8N448 = biological target: T4, LNX2_3, Q8N448
T4 sequence (Q8N448 463-564, limits assumed, looked up): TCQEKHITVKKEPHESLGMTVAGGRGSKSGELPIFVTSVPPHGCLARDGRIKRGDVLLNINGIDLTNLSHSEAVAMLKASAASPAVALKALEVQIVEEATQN

LRRC7, Q96NW7 = biological target: T5, LRRC7, Q96NW7
T5 sequence (Q96NW7 1440-1537, limits assumed, looked up): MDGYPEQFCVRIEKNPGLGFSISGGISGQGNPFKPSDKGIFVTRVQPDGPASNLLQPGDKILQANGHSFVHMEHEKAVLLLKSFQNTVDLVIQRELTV

NHERF2_2, Q15599 = biological target: NHERF2_2, Q15599
NHERF2_2, Q15599, sequence (Q15599 142-238): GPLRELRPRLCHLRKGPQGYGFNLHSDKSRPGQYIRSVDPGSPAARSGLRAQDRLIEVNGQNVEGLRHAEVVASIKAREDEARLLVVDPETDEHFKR

NHERF3_1, Q5T2W1 = biological target: T6, NHERF3_1, Q5T2W1
T6 sequence (Q5T2W1 4-100, limits assumed, looked up): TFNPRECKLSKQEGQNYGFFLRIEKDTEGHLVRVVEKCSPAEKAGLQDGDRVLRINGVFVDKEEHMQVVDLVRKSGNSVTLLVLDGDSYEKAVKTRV

NHERF3_3, Q5T2W1 = biological target: T7, NHERF3_3, Q5T2W1
T7 sequence (Q5T2W1 238-333, limits assumed, looked up): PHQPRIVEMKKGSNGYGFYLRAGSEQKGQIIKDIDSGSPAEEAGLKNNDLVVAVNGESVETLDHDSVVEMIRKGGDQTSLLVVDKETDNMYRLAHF

NHERF4_2, Q86UT5 = biological target: NHERF4_2, Q86UT5
NHERF4_2, Q86UT5, sequence (Q86UT5 220-308): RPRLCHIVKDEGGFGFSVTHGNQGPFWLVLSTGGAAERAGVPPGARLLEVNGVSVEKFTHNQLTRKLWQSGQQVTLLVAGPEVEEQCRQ

PDZD7_3, Q9H5P4 = biological target: T8, PDZD7_3, Q9H5P4
T8 sequence (Q9H5P4 857-944, limits assumed, looked up): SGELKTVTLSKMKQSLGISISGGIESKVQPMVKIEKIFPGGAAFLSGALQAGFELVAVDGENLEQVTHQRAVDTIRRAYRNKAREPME

RHPN1, Q8TCX5 = biological target: T9, RHPN1, Q8TCX5
T9 sequence (Q8TCX5 508-602, limits assumed, looked up): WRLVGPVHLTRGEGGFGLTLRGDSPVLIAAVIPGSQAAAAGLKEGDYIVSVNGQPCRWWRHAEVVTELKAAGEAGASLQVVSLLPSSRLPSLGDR

SHANK1, Q9Y566 = biological target: T10, SHANK1, Q9Y566
T10 sequence (Q9Y566 658-767, limits assumed, looked up): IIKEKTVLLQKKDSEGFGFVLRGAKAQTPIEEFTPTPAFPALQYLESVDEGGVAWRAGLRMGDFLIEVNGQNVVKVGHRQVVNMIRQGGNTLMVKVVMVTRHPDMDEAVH

TJP2_1, Q9UDY2 = biological target: TJP2_1, Q9UDY2
TJP2_1, Q9UDY2, sequence (Q9UDY2 24-128): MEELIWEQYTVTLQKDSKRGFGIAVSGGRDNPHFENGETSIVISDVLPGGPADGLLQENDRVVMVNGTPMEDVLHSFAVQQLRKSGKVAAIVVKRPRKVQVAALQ

TJP3_3, O95049 = biological target: T11, TJP3_3, O95049
T11 sequence (O95049 375-456, limits assumed, looked up): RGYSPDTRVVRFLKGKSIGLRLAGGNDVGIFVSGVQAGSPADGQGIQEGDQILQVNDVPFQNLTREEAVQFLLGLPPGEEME

[1] = plain residues with an end cap or a label only (N-terminal biotin on a linker: ahx)
[2] = plain residues with an end cap or a label only (N-terminal biotin on a linker: ttds)

RRRKRKRTYL [HPV49-L2, P36762]
pKd (APBA1_2, Q02410; [1]): 3.98
pKd (APBA3_1, O96018; [1]): below the threshold
pKd (CASK, O14936; [1]): below the threshold
pKd (DLG1_3, Q12959; [1]): 3.65
pKd (DLG3_3, Q92796; [1]): 4.28
pKd (DLG4_1, P78352; [1]): 3.62
pKd (FRMPD2_3, Q68DX3; [1]): below the threshold
pKd (FRMPD3, Q5JV73; [1]): 3.5
pKd (GOPC, Q9HD26; [1]): 4.3
pKd (GRIP2_3, Q9C0E4; [1]): below the threshold
pKd (GRIP2_6, Q9C0E4; [1]): below the threshold
pKd (Inadl_4, Q8NI35; [1]): below the threshold
pKd (Inadl_8, Q8NI35; [1]): 4.11
pKd (LAP2, Q96RT1; [1]): below the threshold
pKd (LIMK2, P53671; [1]): below the threshold
pKd (LNX1_1, Q8TBB1; [1]): 3.63
pKd (LNX2_3, Q8N448; [1]): below the threshold
pKd (LRRC7, Q96NW7; [1]): below the threshold
pKd (NHERF2_2, Q15599; [1]): 3.49
pKd (NHERF3_1, Q5T2W1; [1]): 4.86
pKd (NHERF3_3, Q5T2W1; [1]): 4.18
pKd (NHERF4_2, Q86UT5; [1]): below the threshold
pKd (PDZD7_3, Q9H5P4; [1]): 4.31
pKd (RHPN1, Q8TCX5; [1]): 3.51
pKd (SHANK1, Q9Y566; [1]): 4.32
pKd (TJP2_1, Q9UDY2; [1]): 5.68
pKd (TJP3_3, O95049; [1]): below the threshold

EVVHTPETSV [SLC16A3, O15427]
pKd (APBA1_2, Q02410; [2]): 4.09
pKd (APBA3_1, O96018; [2]): below the threshold
pKd (CASK, O14936; [2]): below the threshold
pKd (DLG1_3, Q12959; [2]): 4.1
pKd (DLG3_3, Q92796; [2]): 4.28
pKd (DLG4_1, P78352; [2]): 3.9
pKd (FRMPD2_3, Q68DX3; [2]): below the threshold
pKd (FRMPD3, Q5JV73; [2]): below the threshold
pKd (GOPC, Q9HD26; [2]): below the threshold
pKd (GRIP2_3, Q9C0E4; [2]): below the threshold
pKd (GRIP2_6, Q9C0E4; [2]): below the threshold
pKd (Inadl_4, Q8NI35; [2]): below the threshold
pKd (Inadl_8, Q8NI35; [2]): below the threshold
pKd (LAP2, Q96RT1; [2]): 3.81
pKd (LIMK2, P53671; [2]): below the threshold
pKd (LNX1_1, Q8TBB1; [2]): below the threshold
pKd (LNX2_3, Q8N448; [2]): below the threshold
pKd (LRRC7, Q96NW7; [2]): below the threshold
pKd (NHERF2_2, Q15599; [2]): below the threshold
pKd (NHERF3_1, Q5T2W1; [2]): below the threshold
pKd (NHERF3_3, Q5T2W1; [2]): below the threshold
pKd (NHERF4_2, Q86UT5; [2]): below the threshold
pKd (PDZD7_3, Q9H5P4; [2]): 4.45
pKd (RHPN1, Q8TCX5; [2]): 4.24
pKd (SHANK1, Q9Y566; [2]): below the threshold
pKd (TJP2_1, Q9UDY2; [2]): below the threshold
pKd (TJP3_3, O95049; [2]): below the threshold
